{
  "source": "patent US20130244253A1",
  "biological_target": "TGF-β receptors on cultured rat primary hepatic stellate cells",
  "experiment": "cell-based or functional assay",
  "data": [
    {"substance": "purified recombinant NS3 protein (scNS4A-NS3 protease with trx-His-S tag) (enzyme)", "values": [
      {"measurement": "expression of the Collagen(I) α1 gene in cultured rat primary hepatic stellate cells", "result": 6, "unit": "times"}
    ]}
  ]
}
